Reference: article PMC3664818 (Nucleic Acids Research, 2013)

Target: T1, (His)6-Lif1-K301R (S. cerevisiae, UniProt P53150 1-421, K301R)
T1 sequence (looked up): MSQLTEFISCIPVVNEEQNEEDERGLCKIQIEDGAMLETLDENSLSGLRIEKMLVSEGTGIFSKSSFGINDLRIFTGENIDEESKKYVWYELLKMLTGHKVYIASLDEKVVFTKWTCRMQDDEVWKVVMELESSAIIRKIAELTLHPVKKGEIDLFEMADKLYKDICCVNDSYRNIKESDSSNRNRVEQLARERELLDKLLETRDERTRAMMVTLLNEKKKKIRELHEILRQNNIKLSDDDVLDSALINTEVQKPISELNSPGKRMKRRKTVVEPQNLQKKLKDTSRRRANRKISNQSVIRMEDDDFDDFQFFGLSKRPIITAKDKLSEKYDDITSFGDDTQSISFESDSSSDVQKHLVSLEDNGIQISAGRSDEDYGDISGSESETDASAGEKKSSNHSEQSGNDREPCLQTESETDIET
Assay: pull-down

- binding result: binds
B1: MBP-Nej1 (natural protein, S. cerevisiae, UniProt Q06148 1-342, looked up)
chain: MDSELKGQQLSDAEWCVKKINGEGNCLLLFLPMSSPTTIVMIVLVSLERLVPYVFKLSQTQLSQQCQSQGFTDSISLNLIKLKLMDILQAPQEINQIGLVDSNLVFSFDVSADITVSINSVPSHVTKDMFYMILQSLCMLLLKLVNLSTQYHYVQRDILNEKQKCLDFLLISLRDLDGGSKVISQWAPENSKNYESLQQCTDDDIIKKLLHKGKFQHQEFLADSLKTLLSLRNKFQDVSRFEESGELNKKERVRFPAVNHFYNDDFELQADPTNEARPNSRGKIKPKTDFKPKSRESSTSSQLRLENFSESEATPEKTKSSSSLVEEYPQKKRKFGKVRIKN
